Assay [1] addresses T1, Human Activin A Fc (human, UniProt P03970 309-424 (pig entry)).
T1 construct: also called human Activin A-Fc fusion; human Activin A-Fc antigen; not shown: Fc part
T1 sequence: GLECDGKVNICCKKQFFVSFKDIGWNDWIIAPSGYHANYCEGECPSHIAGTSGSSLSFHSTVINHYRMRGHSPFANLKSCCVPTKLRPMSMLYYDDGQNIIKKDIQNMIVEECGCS
Kind of assay: Octet BLI, IgG, avid. As to the method: ForteBio affinity measurements were performed on an Octet HTX generally as previously described (see, e.g., Estep et al, Mabs 5(2), 270-278 (2013)). Briefly, ForteBio affinity measurements were performed by loading IgGs on-line onto AHC sensors. Sensors were equilibrated off-line in assay buffer for 30 min and then monitored on-line for 60 seconds for baseline establishment. Sensors with loaded IgGs were exposed to 100 nM antigen for 3 minutes, and afterwards were transferred to assay buffer for 3 min for off-rate measurement. All kinetics were analyzed using the 1:1 binding model.
Binding affinity and epitope binning assays were performed with a ForteBio instrument as described herein.

In assay [2] the target is T2, Activin B (UniProt P09529 293-407).
T2 sequence (looked up): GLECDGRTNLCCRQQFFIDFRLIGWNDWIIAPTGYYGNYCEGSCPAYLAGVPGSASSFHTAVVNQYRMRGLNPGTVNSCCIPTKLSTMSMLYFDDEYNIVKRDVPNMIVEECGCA
Description: Octet BLI, IgG, avid.

The target of assay [3] is T3, BMP9 (UniProt Q9UK05 320-429).
T3 sequence (looked up): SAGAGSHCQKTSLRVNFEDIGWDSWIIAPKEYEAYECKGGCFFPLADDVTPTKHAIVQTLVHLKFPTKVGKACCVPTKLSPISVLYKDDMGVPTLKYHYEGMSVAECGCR
Kind of assay: Octet BLI, IgG, avid.

For assay [4], the target named is T4, BMP10 (UniProt O95393 317-424).
T4 sequence (looked up): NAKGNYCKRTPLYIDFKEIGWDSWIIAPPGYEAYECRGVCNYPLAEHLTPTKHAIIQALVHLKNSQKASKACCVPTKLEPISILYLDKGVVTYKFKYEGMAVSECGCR
Kind of assay: Octet BLI, IgG, avid.

Assay [5] concerns the target T5, GDF15 Fc (UniProt Q99988 197-308, limits assumed).
T5 construct: not shown: Fc part
T5 sequence (looked up): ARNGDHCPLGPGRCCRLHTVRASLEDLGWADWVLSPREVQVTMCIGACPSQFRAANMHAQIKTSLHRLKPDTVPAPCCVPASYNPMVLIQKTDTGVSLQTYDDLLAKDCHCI
Description: Octet BLI, IgG, avid.

Assay [6] deals with T6, Human GDNF (human, UniProt P39905 78-211).
T6 sequence (looked up): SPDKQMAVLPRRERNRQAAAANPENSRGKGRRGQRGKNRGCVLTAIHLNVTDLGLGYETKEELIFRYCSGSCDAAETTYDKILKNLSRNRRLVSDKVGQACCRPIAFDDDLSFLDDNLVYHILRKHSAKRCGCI
Description: Octet BLI, IgG, avid.

The target of assay [7] is Human GDF8 (human, UniProt O14793 267-375). Kind of assay: Octet BLI, IgG, avid.
The target of assay [8] is T7, Human GDF10 (human, UniProt P55107 369-478).
T7 sequence (looked up): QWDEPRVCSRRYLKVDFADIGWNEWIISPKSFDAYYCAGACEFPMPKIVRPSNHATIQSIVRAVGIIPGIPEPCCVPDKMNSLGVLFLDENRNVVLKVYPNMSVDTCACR
Description: Octet BLI, IgG, avid.

In assay [9] the target is Human GDF11 (human, UniProt O95390 299-407). Description: Octet BLI, IgG, avid.
Chain of Human GDF11 (O95390 299-407 limits assumed): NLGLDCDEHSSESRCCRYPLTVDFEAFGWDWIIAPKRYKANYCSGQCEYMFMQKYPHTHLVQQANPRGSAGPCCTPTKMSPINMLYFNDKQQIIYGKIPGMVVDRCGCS
Assay [10] has as its target T1, Human Activin A Fc. Description: KD with 5% HSA, method not stated.
The target of assay [11] is T1, Human Activin A Fc. Kind of assay: KD with 0.1% BSA, method not stated.
Assay [12] has as its target T1, Human Activin A Fc. Kind of assay: KD with 0.1% HSA, method not stated.
For assay [13], the target named is T8, Human Activin B Fc (human, UniProt P09529 293-407, limits assumed).
T8 construct: not shown: Fc part
T8 sequence (looked up): T2 sequence (looked up)
Kind of assay: KD with 5% HSA, method not stated.

For assay [14], the target named is T9, Human GDF-11 Fc (human, UniProt O95390 299-407, limits assumed).
T9 construct: not shown: Fc part
T9 sequence (O95390 299-407 limits assumed): as above
Kind of assay: KD with 0.1% BSA, method not stated.

Assay [15] addresses T8, Human Activin B Fc. Kind of assay: KD with 0.1% BSA, method not stated.
Assay [16] has as its target T9, Human GDF-11 Fc. Description: KD with 0.1% HSA, method not stated.
Assay [17] deals with T8, Human Activin B Fc. Description: KD with 0.1% HSA, method not stated.
Assay [18] addresses T1, Human Activin A Fc. Description: KD with 0.1% BSA, method not stated; with 0.1% BSA.
Assay [19] addresses T1, Human Activin A Fc. Description: Octet BLI, Fab, monovalent.
Assay [20] has as its target T10, biotinylated Human Activin A (human, UniProt P03970 309-424 (pig entry), biotinylated (EZ-Link Sulfo-NHS-Biotinylation Kit)).
T10 sequence: T1 sequence
Description: SPR (Biacore 8K), antigen captured, Fab analyte. As to the method: (§1) Kinetic analysis was conducted at 25° C. in HBS-EP+ running buffer (10 mM HEPES pH 7.4, 150 mM NaCl, 3 mM EDTA, 0.05% Surfactant P20) using a Biacore 8K optical biosensor (Cytiva, Marlborough, MA). The sample compartment was maintained at 10° C. for the duration of the experiment. The Biacore 8K can analyze up to 8 separate interactions in a single cycle.
(§2) Each experiment cycle began with an injection (300 s at 2 μL/min) overflow cells 1 and 2 of a 1:100 solution of biotin CAPture reagent (Cytiva) in running buffer. This was followed by an injection (45 s at 10.0 μL/min) of biotinylated human ACTIVIN A (5 nM) overflow cell 2. Upon capture of ACTIVIN A to the sensor surface, a single concentration of Fab ranging from 0.111-81.0 nM was injected (300 s at 30 μL/min) overflow cells 1 and 2. The dissociation of the antibodies were monitored for 3420 s. Finally, an injection (120 s at 10 μL/min) of regeneration solution (6 M Guanidine-HCl in 0.25 M NaOH) overflow cells 1 and 2 prepared the sensor surface for another cycle. Several blank buffer samples were injected (300 s at 30 μL/min) overflow cells 1 and 2 throughout the duration of the experiment and used for reference surface subtraction—each were monitored for the same amount of dissociation time (3420 s) and regenerated under the same conditions as those for the Fab sample injections.
(§3) The anti-Activin antibodies identified in Example 1 were characterized. First, binding kinetics of the anti-Activin antibodies was assessed with a Surface Plasmon Resonance assay (Biacore).

In assay [21] the target is T10, biotinylated Human Activin A. Kind of assay: SPR (Biacore 8K), antigen captured, Fab analyte; second, unlabelled row under Clone B (Rmax 38.1). As to the method:
as §1
as §2, with “Finally, an injection (120 s at 10 μL/min) of regeneration solution (6 M Guanidine-HCl in 0.25 M NaOH) overflow cells 1 and 2 prepared the sensor surface for another cycle.” left out
as §3

Assay [22] concerns the target T11, Activin A (ligand of the Activin 2B Receptor/SMAD reporter assay) (UniProt P08476 311-426).
T11 sequence (looked up): T1 sequence
Kind of assay: cell-based or functional assay.

In assay [23] the target is T2, Activin B. Kind of assay: cell-based or functional assay.

“And” between values parts separate entries of the source, which are not always exact repeats. Equal entries are not always repeated. A value given as a limit tells only on which side of the number the result lay.

The text below walks through data of US20260265358A1 (BYOMASS, published 2026).

B1: anti-Activin A antibody Clone Q (IgG) (antibody, V domains shown)
VH: QVQLVQSGAEVKKPGSSVKVSCKASGGSFSPYTWSWVRQAPGQGLEWMGGIIPISGTANTAQKFQGRVTITADESTSTAYMELSSLRSEDTAVYYCARGGPLSGWRASYYYWGQGTLVTVSS
VL: not shown
notes: IgG format; also called Antibody Q
B1: the Kd in [1] is 0.585 nM; in [10] it was 0.189 nM; in assay [11], 0.128 nM; in [12] it was 0.156 nM. In addition, the binding result in assay [2], in assay [3], in assay [4], in assay [5], in assay [6] and in assay [7] was “no binding (tested: 100 nM antigen)” each time. For the same molecule, the binding result in [8] and in [9] was “no binding (tested: 100 nM antigen)” in each case.

B2: anti-Activin A antibody Clone B (IgG) (antibody, V domains shown)
VH: QVQLVQSGAEVKKPGASVKVSCKASGYTFIGYDMHWVRQAPGQGLEWMGVINPSSGGTNYAQKFQGRVTMTRDTSISTAYMELSRLRSDDTAVYYCARARDIAALGLGAFDYWGQGTLVTVSS
VL: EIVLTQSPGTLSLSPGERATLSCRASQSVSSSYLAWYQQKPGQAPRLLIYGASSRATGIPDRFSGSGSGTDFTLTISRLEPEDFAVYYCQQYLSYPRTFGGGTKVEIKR
notes: IgG format; also called Antibody B
In the case of B2, the dissociation constant Kd in assay [1] was found to be 0.527 nM; in assay [2] it was 46.8 nM; in [9], 21 nM; in [10] it was 0.217 nM; in [13] it was 10 nM; in [14] it was 18.9 nM. Moreover, the Kd stood at 3.37 nM in [15]; 0.138 nM in [12]; 18.3 nM in assay [16]; 2.96 nM in assay [17]; 0.138 nM in assay [18]. The binding result in assay [3], in [4], in assay [5], in assay [6], in assay [7] and in assay [8] was “no binding (tested: 100 nM antigen)” each time.

B3: Fab of anti-Activin A antibody Clone B (Fab, V domains shown)
VH: B2 VH
VL: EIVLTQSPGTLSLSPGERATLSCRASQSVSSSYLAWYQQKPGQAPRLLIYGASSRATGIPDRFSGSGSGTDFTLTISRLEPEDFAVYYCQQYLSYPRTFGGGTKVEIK
notes: Fab format; only VH and VL are tied to the clone; also called Fab of Clone B
In the case of B3, the Kd came out at 0.309 nM in assay [19], 0.00981 nM in assay [20] and 0.00617 nM in assay [21]. Further, the off-rate constant (koff) in assay [20] is 2.27e-05 s⁻¹ and 1.58e-05 s⁻¹. Moreover, the on-rate (kon) in [20] was 2.31e+06 M⁻¹ s⁻¹ and 2.56e+06 M⁻¹ s⁻¹.

B4: anti-Activin A antibody Clone L (IgG) (antibody, V domains shown)
VH: QVQLQESGPGLVKPSETLSLTCAVSGYSISSGYYWGWIRQPPGKGLEWIGSIYHSGSTYYNPSLKSRVTISVDTSKNQFSLKLSSVTAADTAVYYCAREAGSGYWYLSVYGMDVWGQGTTVTVSS
VL: EIVLTQSPATLSVSPGERATLSCRASQSVSSNLAWYQQKPGQAPRLLIYGASTRATGIPARFSGSGSGTEFTLTISSLQSEDFAVYYCQQSDDWPWTFGGGTKVEIKR
notes: IgG format; also called Antibody L
On to B4, for which the Kd in [1] was 1.57 nM; in assay [2], 241 nM. The binding result in assay [3], in [4], in assay [5], in assay [6], in assay [7] and in assay [8] was “no binding (tested: 100 nM antigen)” each time. In assay [9], the binding result is on record as “no binding (tested: 100 nM antigen)”. In addition, the “Activin A-ActRIIB SMAD IC50 pM” value in assay [22] was 200 pM. In addition, the “Activin B-ActRIIB SMAD IC50 pM” value in assay [23] is greater than 100000 pM.
